Laboratory results from patent US20160130329.

Molecular target: T1, H3K9me2 peptide
T1 chain: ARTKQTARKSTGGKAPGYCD

B1: SUV39H1 (protein)
chain: EVEYLCDYKKIREQEYYLVKWRGYPDSESTWEPRQNLKCVRILKQFHKDLERELLRRHHRSKTPRHLDPSLANYLVQKAKQRRALRRWEQELNAKRSHLGRITVENEVDLDGPPRAFVYINEYRVGEGITLNQVAVGCECQDCLWAPTGGCCPGASLHKFAYNDQGQVRLRAGLPIYECNSRCRCGYDCPNRVVQKGIRYDLCIFRTDDGRGWGVRTLEKIRKNSFVMEYVGEIITSEEAERRGQIYDRQGATYLFDLDYVEDVYTVDAAYYGNISHFVNHSCDPNLQVYNVFIDNLDERLPRIAFFATRTIRAGEELTFDYNMQVDPVDMESTRMDSNFGLAGLPGSPKKRVRIECKCGTESCRKYLF
Question: Which “histone methyltransferase activity (H3K9me3 product detected by ELISA with 309M3-A)” value does the source give for B1 here?
Answer: activity of the HMT SUV39H1 and its inhibition by an HMT inhibitor, chaetocin (Greiner et al., 2005), were clearly observed with 309M3-A
